How the values were obtained:
hTM cells [1] = test: DNA fragmentation analysis (apoptosis); format: cell-based, human; conditions: free peptide solution, 24 hr (0.5 mM, elsewhere in the source)
Procedure: Effect of peptide-particle conjugates and peptide solutions on the induction of apoptotic DNA fragmentation was analyzed in hTM cells. […] Cells were recovered from wells using a cell scraper. DNA was isolated and purified using DNeasy blood and tissue kit (Qiagen). Extracted DNA molecules from control and treated hTM cells were subjected to 2% agarose gel electrophoresis and visualized by SYBR green staining.

XFS materials = test: Ex vivo targeting of Cy5-labeled phage-displayed peptides on exfoliative human lens capsules; format: binding; conditions: 1 hr, 37° C., human aqueous humor/BSS; fluorescence microscopy
Procedure: Amplified phages (1×10^11 pfu) were resuspended in 0.3 M NaHCO3 (pH 8.6) containing 10 μg Cy5 dye and incubated for 2 hr at room temperature in the dark. Subsequent to phage/fluorophore incubation, 40 μl of 10 mM lysine was added to interact with remaining free Cy5 dye molecules in the solution. The volume of the reaction mixture was subsequently brought up to 1 ml with PBS buffer, and the phages were purified with two rounds of 20% (w/v) polyethylene glycol-8000, 2.5 M NaCl precipitation. The labeled phages resuspended in BSS solution.
Fluorescently labeled phages carrying identified targeting peptides as well as wild-type phages without peptide-encoding inserts were incubated with exfoliative human lens capsules in a 100-μl solution containing equal volumes of human aqueous humor fluid and BSS solution. The incubation was allowed to continue for 1 hr at 37° C. After serially washing with BSST buffer (0.1, 0.3%), three times each, the lens capsules were mounted on microscope slides and were examined under an Olympus IX81 inverted fluorescence microscope (Olympus Corporation, Tokyo, Japan). The location of XFS materials on the surface of the lens capsule was confirmed in bright-field mode prior to fluorescence imaging.

hTM cells [2] = test: Live/dead cell viability assay on hTM monolayers; format: cell-based; conditions: free peptide solution, 1 mM; mean±1 SD, n≥3
Procedure: Primary human trabecular meshwork (hTM) cells were obtained from ScienCell Research Laboratories (Carlsbad, CA), and maintained in TMCM medium (ScienCell, no. 6591). Primary cell culture was passaged according to the manufacturer's instructions. Passage three cells were seeded on tissue culture plates coated with gelatin and media were refreshed every 2-3 days. These monolayer cultures were used in subsequent experiments upon reaching 95-100% confluency.
Cell viability was further assayed using LIVE/DEAD® viability/cytotoxicity kit (Molecular Probes). Monolayers of hTM cells were treated in triplicates with peptides alone in solution (1 mM) and in conjugation with MPs (100 μg). Cell viability was then assessed according to the manufacturer's protocol. The kit is based on calcein AM/ethidium homodimer-1 (EthD-1) system, where calcein AM detects cellular esterase activity of live cells and EthD-1 stains nuclei of dead cells. A similar live/dead assay was used to investigate the effect of MP-peptide conjugates on the viability of hTM cells in the presence of the rotating magnetic field. […] The viability of hTM cells was then assessed as described above. […] The cells were treated with the rotating magnetic field for 10 min and then analyzed using live/dead assay as described before. […]

Sequence	apoptotic chromosomal DNA fragmentation (hTM cells [1])	binding of Cy5-labeled phages to XFS materials on lens capsule (XFS materials)	% of live cells (hTM cells [2])
IPLLNPGSMQLS [p-IPL]	chromosomal DNA remained intact	specific binding to XFS materials	99.00 ± 0.37%
LPSYNLHPHVPP [p-LPS]	chromosomal DNA remained intact	specific binding to XFS materials	99.12 ± 0.94%

Source: US20250381293A1, “PEPTIDES AND MAGNETIC PARTICLE-PEPTIDE CONJUGATES FOR PREVENTION OR TREATMENT OF GLAUCOMA” (THE GOVERNORS OF THE UNIVERSITY OF ALBERTA, priority 2022, published 2025)
